Legend:
[1] = target: T1, F-actin (rabbit skeletal muscle α-actin, filamentous) (rabbit (Oryctolagus cuniculus), UniProt P68135 1-377); experiment: fluorescence polarisation
[2] = target: T1, F-actin (rabbit skeletal muscle …); experiment: other fluorescence titration

Binder | Kd [1] [nM] | Kd [2] [nM]
FM-SipAC-ΔArm2 (SipA residues 425-658 labelled with fluorescein maleimide) (domain or fragment, labeled with fluorescein maleimide (FM)) TGETTSFDEVDGVTSKSIIGKPVQATVHGVDDNKQQSQTAEIVNVKPLASQLAGVENVKTDTLQSDTTVITGNKAGTTDNDNSQTDKTGPFSGLKFKQNSFLSTVPSVTNMHSMHFDARETFLGVIRKALEPDTSTPFPVRRAFDGLRAEILPNDTIKSAALKAQCSDIDKHPELKAKMETLKEVITHHPQKEKLAEIALQFAREAGLTRLKGETDYVLSNVLDGLIGDGSWRA | 120 | –
SipAC-Core (SipA residues 512-658), unlabelled (domain or fragment) TGPFSGLKFKQNSFLSTVPSVTNMHSMHFDARETFLGVIRKALEPDTSTPFPVRRAFDGLRAEILPNDTIKSAALKAQCSDIDKHPELKAKMETLKEVITHHPQKEKLAEIALQFAREAGLTRLKGETDYVLSNVLDGLIGDGSWRA | – | 81

— paper PMC11162321 (Structure (London, England : 1993), 2024)
